Experimental data reported in article PMC3267046, “Structure of Ddn, the Deazaflavin-Dependent Nitroreductase from Mycobacterium tuberculosis Involved in Bioreductive Activation of PA-824” (Structure(London, England:1993), 2012).

B1: MBP-Ddn fusion protein, full-length wild-type deazaflavin-dependent nitroreductase (Ddn, Rv3547) fro (enzyme)
chain: MPKSPPRFLNSPLSDFFIKWMSRINTWMYRRNDGEGLGGTFQKIPVALLTTTGRKTGQPRVNPLYFLRDGGRVIVAASKGGAEKNPMWYLNLKANPKVQVQIKKEVLDLTARDATDEERAEYWPQLVTMYPSYQDYQSWTDRTIPIVVCEP
notes: also called WT MBP-Ddn
B2: Untagged wild-type Ddn (full length), produced by proteolytic removal of MBP (enzyme)
chain: B1 chain
notes: also called Untagged Ddn; untagged WT Ddn

Target: the molecule itself
Assay: SEC

Row | Protein | binding result
1 | B1 | binds
2 | B2 | binds
